Reference: patent publication CN114031685A (INST MILITARY MEDICINE ACADEMY MILITARY SCIENCES PLA, dated 2022)

Legend:
[1] = biological target: SARS-CoV-2 WT S-ECD蛋白 (新冠野生株, Genbank NC_045512.2) (SARS-CoV-2, UniProt P0DTC2 14-1213)
[2] = biological target: Alpha株 S蛋白 (on pseudovirus) (SARS-CoV-2 Alpha株 (B.1.1.7)); assay: cell-based or functional assay
[3] = biological target: Beta株 S蛋白 (on pseudovirus / live virus) (SARS-CoV-2 Beta株 (B.1.351)); assay: cell-based or functional assay
[4] = biological target: Gamma株 S蛋白 (on pseudovirus) (SARS-CoV-2 Gamma株 (P.1)); assay: cell-based or functional assay
[5] = biological target: Delta株 S蛋白 (on pseudovirus / live virus) (SARS-CoV-2 Delta株 (B.1.617.2)); assay: cell-based or functional assay
[6] = biological target: Omicron株 S蛋白 (on pseudovirus) (SARS-CoV-2 Omicron株 (B.1.1.529)); assay: cell-based or functional assay

B1: 抗SARS-CoV-2全人源单克隆抗体ZW2G10 (antibody, V domains shown)
VH: EVQLVESGGGLVQPGRSLRLSCAASGFTFDDYAMHWVRQAPGKGLEWVSGITWNSGTIGYADSVKGRFIISRDNAKNSLHLQMNSLRVEDTALYYCAKDNSDYSGYYWELENYGMDVWGQGTTVTVSS
VL: QSVLTQPPSVSGAPGQRVTISCTGSSSNIGAGYDVHWYQQLPGTAPKLLIYDNNNRPSGVPDRFSGSKSGTSASLAITGLQAEDEADYYCQSFDSSLSGVVFGGGTRLTVLR
notes: also called 单抗ZW2G10
[1]
  Kd: 0.243 nM
[2]
  假病毒中和 EC50: 0.0141 µg/mL
[3]
  假病毒中和 EC50: 0.0184 µg/mL
  真病毒中和 EC50 (Vero E6): 1.42 µg/mL
[4]
  假病毒中和 EC50: 0.0156 µg/mL
[5]
  假病毒中和 EC50: 0.0362 µg/mL
  真病毒中和 EC50 (Vero E6): 0.71 µg/mL
[6]
  假病毒中和 EC50: 0.0193 µg/mL
